Results as given in patent US20110044980A1.
“And” between values parts separate entries of the source, which are not always exact repeats. Equal values may be shown once.

What was measured:
FcgRI (human) = FcgRI (human) (UniProt P12314); experiment: flow cytometry (FACSCalibur), THP-1 cells, pH 7.4, 100 ug/ml
FcgRIIb (human) [1] = molecular target: FcgRIIb (human) (UniProt P31994); experiment: flow cytometry (FACSCalibur), CHO-FcgRII-b-1 cells, pH 7.4, 100 ug/ml
FcgRIIa (human) = FcgRIIa (human) (UniProt P12318); experiment: flow cytometry (FACSCalibur), K562 cells, pH 7.4, detection reagent alone
Chain of FcgRIIa (human) (P12318 34-317): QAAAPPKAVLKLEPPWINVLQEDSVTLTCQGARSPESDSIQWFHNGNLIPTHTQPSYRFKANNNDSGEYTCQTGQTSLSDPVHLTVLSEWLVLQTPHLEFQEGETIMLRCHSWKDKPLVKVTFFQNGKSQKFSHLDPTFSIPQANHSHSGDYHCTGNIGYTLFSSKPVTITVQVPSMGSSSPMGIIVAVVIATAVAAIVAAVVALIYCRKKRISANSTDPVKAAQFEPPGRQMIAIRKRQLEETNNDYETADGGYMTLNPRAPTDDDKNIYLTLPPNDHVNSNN

FcRn = FcRn (UniProt P55899); experiment: flow cytometry (FACSCalibur), FcRnGPI-CHO cells, pH 6.4, detection reagent alone
FcgRIIb (human) [2] = molecular target: FcgRIIb (human) (UniProt P31994); experiment: flow cytometry (FACSCalibur), CHO-FcgRII-b-1 cells, pH 7.4, detection reagent alone

Substance	Fc Receptor Binding Geometric Mean (FcgRI (human))	Fc Receptor Binding Geometric Mean (FcgRIIb (human) [1])	Fc Receptor Binding Geometric Mean (FcgRIIa (human))	Fc Receptor Binding Geometric Mean (FcRn)	Fc Receptor Binding Geometric Mean (FcgRIIb (human) [2])
EGFR (Erbitux ®, Imclone) (antibody)	101 and 67	3			
R-PE conjugated anti-human IgG F(Ab')2 (Jackson ImmunoResearch, Cat.#109-116-170)			3	6 and 5	3
